# Columns and labels:
# [1] = tested on: heat-inactivated alpha-1 antitrypsin
# [2] = tested on: human alpha-1 antitrypsin (native, not heat-inactivated; clinical grade, e.g. Aralast)
substance,measurement,setting,value
"elastase (e.g., Sigma), species not stated","elastase activity: hydrolysis of N-Succinyl-Ala-Ala-Ala-p-nitroanalide, absorbance at 410 nm",[1],combining HIAAT with elastase produced a curve similar to that of elastase alone
same,"elastase activity: hydrolysis of N-Succinyl-Ala-Ala-Ala-p-nitroanalide, absorbance at 410 nm",[2],Combining native (NOT heat-inactivated) AAT ablated elastase processing of the N-Succinyl-Ala-Ala-Ala-p-nitroanalide substrate and blocked the increase in A410 nm

# Reference: US20090203580
